Measured values taken from patent publication US7438916B2, “Therapeutic target for protozoal diseases” (priority 2005, dated 2008).

Key:
FRAP = target: T1, FRAP (Plasmodium falciparum, UniProt Q8IL04); test: Inhibition of FRAP-mediated hemozoin formation; assay type: biochemical, P. falciparum; conditions: different concentrations, FIG. 14
T1 construct: The activity requires the complete protein as two truncated variants of FRAP; made in house; host or cells: E. coli BL21
Procedure: FIG. 14. Inhibition of FRAP-mediated hemozoin formation by Chloroquine. Hemozoin formation was investigated in the absence or presence of different concentrations of chloroquine, an antimalarial drug with high affinity for heme.
(§1) The standard assay contained in a total volume of 1.0 ml: 500 mM sodium acetate pH 5.2, 300 nmol/ml hemin-Cl (as substrate) and 500 pmol/ml FRAP, as the source of heme polymerase activity. The amount of FRAP added was chosen such that 50% of the substrate was converted into product (insoluble hemozoin) during the assay. The reaction was initiated by protein addition and allowed to proceed for 16 hours at 37 degree. The reaction was terminated by adding 0.01 ml of 10% SDS solution. The reaction tube was centrifuged at 13,000 rpm for 15 minutes at 23 degrees and the supernatant was carefully removed. The pellet, which contained the polymerized and insoluble hemozoin, was resuspended in 1 ml of 0.1 M sodium bicarbonate pH 9.1 containing 2.5% SDS. […] The pellet obtained after final washing was dissolved in 0.3 ml of 0.1 N NaOH and the absorbance of the solution was measured at 405 nm using a spectrophotometer. Amount of heme polymerized was calculated utilizing a standard curve, prepared by dissolving known amounts of commercially available beta-hematin in 0.1 N NaOH. […]

HepG2 cells [1] = test: Liver cell binding inhibition assay with glycosaminoglycans; assay type: cell-based, human; conditions: FIG. 6
Procedure: Liver Cell binding assay: The binding of proteins was assayed on HepG2 cells as described previously (1, 31). Briefly, cells were plated at a density of 25,000 cells/well, in a 96 well plate, 36 hours before the start of the experiment. The cells were fixed with paraformaldehyde, blocked with 1% BSA, followed by the addition of equimolar concentrations of recombinant proteins. Bound protein was detected using anti-polyhistidine tag monoclonal antibody (1:10,000) and anti-mouse antibody conjugated to alkaline phosphatase (1:2000). Amount of bound protein was detected by using 4-methylumbelliferyl phosphate, a fluorescent substrate, and measurement of fluorescence using a fluorescent plate reader (Molecular Devices, CA) with excitation and emission set at 350 nm and 460 nm respectively. Results are shown as mean±standard deviation of mean of a representative experiment performed in triplicate. Binding inhibition assays were performed by combining the recombinant proteins with increasing amounts of glycosaminoglycans and incubating at 37° C. for 15 min. For enzyme treatment, cells were incubated with different concentrations of Heparinase I or Chondroitinase ABC for 90 minutes at 37° C. as previously described (31), before the addition of proteins. The bound protein was assayed as described above. […]

HepG2 cells [2] = test: Liver cell binding assay; assay type: cell-based, human; conditions: FIG. 5
Procedure: (§2) Liver Cell binding assay: The binding of proteins was assayed on HepG2 cells as described previously (1, 31). Briefly, cells were plated at a density of 25,000 cells/well, in a 96 well plate, 36 hours before the start of the experiment. The cells were fixed with paraformaldehyde, blocked with 1% BSA, followed by the addition of equimolar concentrations of recombinant proteins. Bound protein was detected using anti-polyhistidine tag monoclonal antibody (1:10,000) and anti-mouse antibody conjugated to alkaline phosphatase (1:2000). Amount of bound protein was detected by using 4-methylumbelliferyl phosphate, a fluorescent substrate, and measurement of fluorescence using a fluorescent plate reader (Molecular Devices, CA) with excitation and emission set at 350 nm and 460 nm respectively. Results are shown as mean±standard deviation of mean of a representative experiment performed in triplicate. Binding inhibition assays were performed by combining the recombinant proteins with increasing amounts of glycosaminoglycans and incubating at 37° C. for 15 min. For enzyme treatment, cells were incubated with different concentrations of Heparinase I or Chondroitinase ABC for 90 minutes at 37° C. as previously described (31), before the addition of proteins. The bound protein was assayed as described above.
Therefore, binding activity was probed using a polyhistidine tag monoclonal antibody. […]

heme = test: FRAP-mediated hemozoin formation assay; assay type: biochemical; conditions: result in words
Procedure: FIG. 8. FRAP-mediated neutralization of toxic heme into non-toxic Hemozoin. 500 pmoles of each of the protein was incubated with different concentrations of free heme at 37° C. for 16 hours, under acidic conditions (500 mM Sodium acetate pH 5.2). After 16 hours, free heme was removed by washing and the insoluble pellet representing hemozoin was solubalized in sodium hydroxide and estimated using a spectrophotometer.
as §1, with “degree.” for “degree. The reaction was terminated by adding 0.01 ml of 10% SDS solution. The reaction tube was centrifuged at 13,000 rpm for 15 minutes at 23 degrees and the supernatant was carefully removed. The pellet, which contained the polymerized and insoluble hemozoin, was resuspended in 1 ml of 0.1 M sodium bicarbonate pH 9.1 containing 2.5% SDS.”
Furthermore, the hemozoin formation was also evaluated with truncated variants and point mutants of FRAP to not only describe its structural requirements, but also pin point the residues that are involved in the polymerization process.

[3] = test system: P. falciparum sporozoites; test: Sporozoite invasion assay; assay type: cell-based, P. falciparum (strain NF54); conditions: versus culture medium
Procedure: Sporozoite Invasion Assay: Invasion assay was performed with HepG2 (Human hepatoma) cells as previously described (31). Briefly, HepG2 cells were plated (50,000 cells/0.3 ml) and incubated overnight at 37° C. in a CO2 incubator. Next day, medium was removed and 50 μl of diluted FRAP proteins (final concentrations: 20 and 10 μg/ml) or anti-FRAP2 antibodies (40 μg/ml final concentration) were added per well. Anti CS monoclonal antibody NFS1 was used at a final concentration of 100 μg/ml. All protein concentrations and serum dilutions were evaluated in triplicate. This was immediately followed by the addition of 20,000 sporozoites in 50 μl of medium to each well. P. falciparum (strain NF54) sporozoites were obtained from the salivary glands of An. stephensi mosquitoes as described by Ozaki (33). The sporozoites were allowed to invade liver cells for three hours followed by the washing of cells with PBS at pH 7.4. Subsequently, the cells were fixed with cold methanol. Sporozoites were visualized by immunostaining using NFS1 as primary antibody and anti-mouse IgG-peroxidase conjugate. The slides were mounted with Paramount and only intracellular sporozoites were counted as described (31). Percentage inhibition of invasion was calculated with the following formula: [(Control-test)/control]×100 Results

HepG2 cells [4] = test: Binding to liver cells pretreated with glycosaminoglycan cleaving enzyme; assay type: cell-based, human; conditions: for Inhibition of Binding (%): 100 nM protein
Procedure: as §2
The involvement of HSPG as a receptor was further verified by evaluating the binding of the protein on liver cells that were pretreated with specific glycosaminoglycan-cleaving enzymes. Cells were pre-treated with heparinase I or chondroitinase ABC followed by the evaluation of binding activity of FRAP and FRAP2. Heparinase I selectively removes heparan sulfate while chondroitinase ABC cleaves chondroitin sulfate A, B and C type sugars from the liver cell surface. Both, FRAP and FRAP2 lost 50% of their binding activity on heparinase I treated cells (Table 4) confirming the involvement of a heparin-based receptor on the liver cell surface.

T1 sequence (Q8IL04 whole entry, the tested form may be a part): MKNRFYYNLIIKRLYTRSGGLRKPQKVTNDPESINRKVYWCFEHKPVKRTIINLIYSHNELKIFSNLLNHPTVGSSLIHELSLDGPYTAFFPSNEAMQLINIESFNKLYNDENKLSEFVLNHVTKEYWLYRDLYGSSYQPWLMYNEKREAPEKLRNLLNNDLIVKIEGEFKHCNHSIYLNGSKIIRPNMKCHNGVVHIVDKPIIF

CCN(CC)CCCC(C)Nc1ccnc2cc(Cl)ccc12 (centres unmarked) [Chloroquine, chloroquine]
inhibition of FRAP-mediated hemozoin formation (FRAP): inhibited heme polymerization in a dose dependent manner
inhibition of FRAP-mediated hemozoin formation (FRAP; listed as chloroquine): effectively inhibited

chondroitin sulfate A [reference compound]
inhibition of FRAP and FRAP2 binding to liver cells by the glycosaminoglycan (HepG2 cells [1]; highest concentration evaluated): no inhibition

B1: FRAP2: truncated FRAP containing only amino acids 1-87, SEQ ID NO: 25 (protein, listed as Plasmodium falciparum)
chain: MKNRFYYNLIIKRLYTRSGGLRKPQKVTNDPESINRKVYWCFEHKPVKRTIINLIYSHNELKIFSNLLNHPTVGSSLIHELSLDGPY
reduction of binding activity in the presence of free heparin (HepG2 cells [1]; HepG2 cells): 60%
loss of binding activity in comparison to the full length protein (HepG2 cells [2]): 50%
binding on liver cells (HepG2 cells [2]; five concentrations of recombinant protein): only half the strength
hemozoin formation (heme polymerization) activity (heme): did not show any hemozoin formation
% Inhibition of invasion of HepG2 cells by P. falciparum sporozoites ([3]; 10 μg/ml): 88.1 ± 4.6%
% Inhibition of invasion of HepG2 cells by P. falciparum sporozoites ([3]; 20 μg/ml): 92.4%
Inhibition of Binding (%) (HepG2 cells [4]; cells pretreated with Heparinase I 1.25 U/ml for 90 minutes): 42.3 ± 10.4%
Inhibition of Binding (%) (HepG2 cells [4]; cells pretreated with Heparinase I 2.50 U/ml for 90 minutes): 41.4 ± 1.5%
Inhibition of Binding (%) (HepG2 cells [4]; cells pretreated with Heparinase I 5.00 U/ml for 90 minutes): 49.4 ± 9.2%
loss of binding activity on heparinase I treated cells (HepG2 cells [4]; text summary of Table 4): 50%

B2: FRAP from rodent malaria parasite P. yoelii: P. yoelii FRAP ortholog, SEQ ID NO: 9 (protein, listed as Plasmodium yoelii)
chain: MKKKLYNLVLKRSYTRSGGLRKPQKVTNDPESINRKVYWCFEHKPVRRTVINLIFSHNELKNFSTLLRNTNASSSLIHELSLEGPYTGFLPSDEALNLLSTNSLNKLYKDDNKMSEFVLNHFTKGLWMYRDLYGSSYQPWLMYNEKREAPEKIQTLVNNDIIVKIEGEFKNCDHSIYLNEAKIIRPNMKCHNGIIHIIDKPIIF
hemozoin formation (heme polymerization) activity (heme): demonstrated
